{
  "source": "patent US20250206795",
  "system": "T1, Mouse proBDNF-G-CSF-Tr protein",
  "T1 sequence": "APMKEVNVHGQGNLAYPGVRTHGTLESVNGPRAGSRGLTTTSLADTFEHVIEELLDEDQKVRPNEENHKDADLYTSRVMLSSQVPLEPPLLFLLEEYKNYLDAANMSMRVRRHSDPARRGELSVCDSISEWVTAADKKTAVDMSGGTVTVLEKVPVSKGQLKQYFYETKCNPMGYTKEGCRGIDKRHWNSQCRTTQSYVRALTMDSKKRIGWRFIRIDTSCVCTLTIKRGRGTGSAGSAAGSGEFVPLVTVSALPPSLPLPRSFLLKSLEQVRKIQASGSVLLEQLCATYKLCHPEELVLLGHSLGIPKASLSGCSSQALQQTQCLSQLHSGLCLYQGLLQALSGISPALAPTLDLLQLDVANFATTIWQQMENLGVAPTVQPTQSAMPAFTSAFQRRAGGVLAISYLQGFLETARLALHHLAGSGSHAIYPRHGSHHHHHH",
  "data": [
    {"substance": "furin", "values": [
      {"measurement": "enzymatic cleavage (SDS PAGE and Western blot with anti-4-His antibodies), 1 Unit furin, 30 C, 4 hours", "result": "furin effectively cleaved the proBDNF-G-CSF-Tr molecule to yield BDNF-G-CSF-Tr"}
    ]}
  ]
}
